# Experimental data reported in patent US10239925B2, “Peptides and combination of peptides for use in immunotherapy against ovarian cancer and other cancers” (IMMATICS BIOTECHNOLOGIES GMBH, priority 2015, dated 2019).
# Molecular target: HLA-A*02:01 (Homo sapiens, UniProt P04439, D140Y/D185E/D98H/E176V/E277Q/G131W/G231S/I119V/I121R/I166T/I218V/L300P/L318F/N151K/N90K/P208A/P217A/Q86G/Q94H/R138H/R169H/T345S)
# Assay: MHC binding assay (UV-ligand exchange, anti-β2m ELISA, peptide exchange yield)
# Conditions: binding to HLA-A*02:01
# Summary of the method: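 Yield of stabilized complexes quantified via the β2m light chain in an ELISA (streptavidin capture, 100-fold diluted monomers, HRP anti-β2m 2 ug/ml at 37 °C, TMB, A450). The complexes come from UV-triggered replacement of a photocleavable ligand by the candidate peptide.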
row,Substance,"Peptide exchange (MHC class I binding score, peptide exchange yield)"
1,478 (YLLHEKLNL; listed as Homo sapiens) [compound 478],“+++” (>50 = +++)
2,479 (SLFGNSGILENV; listed as Homo sapiens) [compound 479],“+++” (>50 = +++)
3,480 (ALLEDSCHYL; listed as Homo sapiens) [compound 480],“+++” (>50 = +++)
4,481 (GLIEDYEALL; listed as Homo sapiens) [compound 481],“+++” (>50 = +++)
5,484 (SLIEKVTQL; listed as Homo sapiens) [compound 484],“+++” (>50 = +++)
6,485 (NVPDSFNEV; listed as Homo sapiens) [compound 485],“+++” (>50 = +++)
7,486 (AVMESIQGV; listed as Homo sapiens) [compound 486],“+++” (>50 = +++)
8,487 (LLINSVFHV; listed as Homo sapiens) [compound 487],“+++” (>50 = +++)
9,488 (FLAEDPKVTL; listed as Homo sapiens) [compound 488],“+++” (>50 = +++)
10,490 (FLLQHVQEL; listed as Homo sapiens) [compound 490],“+++” (>50 = +++)
11,491 (GLNDRSDAV; listed as Homo sapiens) [compound 491],“++” (>20% = ++)
12,492 (SLFDGFADGLGV; listed as Homo sapiens) [compound 492],“+++” (>50 = +++)
13,493 (GLLGEKTQDLIGV; listed as Homo sapiens) [compound 493],“+++” (>50 = +++)
14,494 (ALQPEPIKV; listed as Homo sapiens) [compound 494],“++” (>20% = ++)
15,495 (FIFSEKPVFV; listed as Homo sapiens) [compound 495],“+++” (>50 = +++)
16,496 (FLVEKQPPQV; listed as Homo sapiens) [compound 496],“+++” (>50 = +++)
17,497 (GLLEKLTAI; listed as Homo sapiens) [compound 497],“+++” (>50 = +++)
18,498 (KLWTGGLDNTV; listed as Homo sapiens) [compound 498],“+++” (>50 = +++)
19,500 (SLMEDQVLQL; listed as Homo sapiens) [compound 500],“+++” (>50 = +++)
20,501 (LLDPNVKSIFV; listed as Homo sapiens) [compound 501],“+++” (>50 = +++)
21,502 (RLLAQVPGL; listed as Homo sapiens) [compound 502],“+++” (>50 = +++)
22,503 (SLNHFTHSV; listed as Homo sapiens) [compound 503],“+++” (>50 = +++)

row,Substance,"Peptide exchange (MHC class I binding score, peptide exchange yield)"
1,504 (GLSDGNPSL; listed as Homo sapiens) [compound 504],“++” (>20% = ++)
2,505 (SLAPGDVVRQV; listed as Homo sapiens) [compound 505],“++” (>20% = ++)
3,506 (KLLGKVETA; listed as Homo sapiens) [compound 506],“+++” (>50 = +++)
4,507 (KLIDDQDISISL; listed as Homo sapiens) [compound 507],“+++” (>50 = +++)
5,508 (ILAQEQLVVGV; listed as Homo sapiens) [compound 508],“+++” (>50 = +++)
6,509 (FLFDTKPLIV; listed as Homo sapiens) [compound 509],“+++” (>50 = +++)
7,510 (KLYSVVSQL; listed as Homo sapiens) [compound 510],“++” (>20% = ++)
8,512 (SLSEIVPCL; listed as Homo sapiens) [compound 512],“+++” (>50 = +++)
9,513 (SLWPSPEQL; listed as Homo sapiens) [compound 513],“++” (>20% = ++)
10,514 (ILVDWLVQV; listed as Homo sapiens) [compound 514],“+++” (>50 = +++)
11,515 (LLQELVLFL; listed as Homo sapiens) [compound 515],“+++” (>50 = +++)
12,516 (AVGPASILKEV; listed as Homo sapiens) [compound 516],“++” (>20% = ++)
13,517 (LLMPIPEGLTL; listed as Homo sapiens) [compound 517],“+++” (>50 = +++)
14,519 (GLLHLTLLL; listed as Homo sapiens) [compound 519],“+++” (>50 = +++)
15,520 (LAVHPSGVAL; listed as Homo sapiens) [compound 520],“+” (>10% = +)
16,521 (MLLTKLPTI; listed as Homo sapiens) [compound 521],“+++” (>50 = +++)
17,522 (TLWYRSPEV; listed as Homo sapiens) [compound 522],“++” (>20% = ++)
18,523 (YQIPRTFTL; listed as Homo sapiens) [compound 523],“++” (>20% = ++)
19,524 (ALIENLTHQI; listed as Homo sapiens) [compound 524],“++” (>20% = ++)
20,525 (VLLEAGEGLVTI; listed as Homo sapiens) [compound 525],“+++” (>50 = +++)
21,526 (RLAEVGQYEQV; listed as Homo sapiens) [compound 526],“++” (>20% = ++)
22,527 (FLLEPGNLEV; listed as Homo sapiens) [compound 527],“++++” (>75% = ++++)

row,Substance,"Peptide exchange (MHC class I binding score, peptide exchange yield)"
1,528 (SVAEGRALMSV; listed as Homo sapiens) [compound 528],“+++” (>50 = +++)
2,529 (LLADELITV; listed as Homo sapiens) [compound 529],“+++” (>50 = +++)
3,530 (VMYADIGGMDI; listed as Homo sapiens) [compound 530],“+++” (>50 = +++)
4,531 (YTLPIASSIRL; listed as Homo sapiens) [compound 531],“+++” (>50 = +++)
5,537 (TLAPGEVLRSV; listed as Homo sapiens) [compound 537],“+++” (>50 = +++)
6,538 (LLLAHIIAL; listed as Homo sapiens) [compound 538],“++” (>20% = ++)
7,539 (ALFDAQAQV; listed as Homo sapiens) [compound 539],“+++” (>50 = +++)
8,541 (SMLEPVPEL; listed as Homo sapiens) [compound 541],“+++” (>50 = +++)
9,542 (RVWDISTVSSV; listed as Homo sapiens) [compound 542],“+++” (>50 = +++)
10,543 (GLLPTPITQQASL; listed as Homo sapiens) [compound 543],“+++” (>50 = +++)
11,544 (LLWDVPAPSL; listed as Homo sapiens) [compound 544],“+++” (>50 = +++)
12,545 (LLADLLHNV; listed as Homo sapiens) [compound 545],“+++” (>50 = +++)
13,546 (VMIAGKVAVV; listed as Homo sapiens) [compound 546],“+++” (>50 = +++)
14,547 (TLDITPHTV; listed as Homo sapiens) [compound 547],“+++” (>50 = +++)
15,548 (ALWENPESGEL; listed as Homo sapiens) [compound 548],“++” (>20% = ++)
16,549 (AMLENASDIKL; listed as Homo sapiens) [compound 549],“+++” (>50 = +++)
17,550 (FLYDEIEAEVNL; listed as Homo sapiens) [compound 550],“+++” (>50 = +++)
18,551 (KLYESLLPFA; listed as Homo sapiens) [compound 551],“+++” (>50 = +++)
19,552 (GLLDLPFRVGV; listed as Homo sapiens) [compound 552],“+++” (>50 = +++)
20,553 (SLLNQDLHWSL; listed as Homo sapiens) [compound 553],“+++” (>50 = +++)
21,554 (LLMPSSEDLLL; listed as Homo sapiens) [compound 554],“+++” (>50 = +++)
22,555 (YVLEGLKSV; listed as Homo sapiens) [compound 555],“+++” (>50 = +++)
